What was measured:
[1] = biological target: c-Met on human cancer cells (human) (UniProt P08581)
[2] = biological target: c-Met on human cancer cells (human) (UniProt P08581); remark: listed apart in the source

antibody 5D5 (ATCC Cat. # HB11895)
relative cell viability (%) of MKN45 cells, 72 h [1]: 53% | Akt phosphorylation (%) in Caki-1 cells, 5 ug/ml, 30 min [2]: 100%
